# Measurements published in PMC11698074 (Science Advances, 2025).
# T1: His-GFP-Klp2 (S. pombe, UniProt Q9US03 1-817)
# T1 sequence: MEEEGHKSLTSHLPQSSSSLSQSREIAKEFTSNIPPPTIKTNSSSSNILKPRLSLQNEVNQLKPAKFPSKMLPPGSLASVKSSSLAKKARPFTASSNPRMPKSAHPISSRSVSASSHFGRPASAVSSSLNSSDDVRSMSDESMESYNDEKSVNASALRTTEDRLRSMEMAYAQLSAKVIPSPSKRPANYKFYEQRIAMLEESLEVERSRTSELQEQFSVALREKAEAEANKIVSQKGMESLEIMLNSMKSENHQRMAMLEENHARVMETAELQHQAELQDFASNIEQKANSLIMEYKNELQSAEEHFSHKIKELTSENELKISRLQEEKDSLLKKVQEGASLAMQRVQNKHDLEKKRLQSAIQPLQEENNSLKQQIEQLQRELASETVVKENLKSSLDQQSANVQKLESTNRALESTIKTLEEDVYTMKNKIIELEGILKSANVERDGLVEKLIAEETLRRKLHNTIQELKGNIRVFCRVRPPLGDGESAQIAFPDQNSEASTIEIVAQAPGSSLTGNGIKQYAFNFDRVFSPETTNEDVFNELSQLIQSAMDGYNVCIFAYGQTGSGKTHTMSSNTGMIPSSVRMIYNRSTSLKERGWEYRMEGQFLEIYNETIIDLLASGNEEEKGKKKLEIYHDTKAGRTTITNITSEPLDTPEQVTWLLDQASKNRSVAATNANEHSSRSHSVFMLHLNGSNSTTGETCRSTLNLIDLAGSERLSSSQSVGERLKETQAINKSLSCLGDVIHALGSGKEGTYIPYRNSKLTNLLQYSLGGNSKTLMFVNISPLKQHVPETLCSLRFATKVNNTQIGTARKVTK
# T2: StrepII-GFP-Klp2 (S. pombe, UniProt Q9US03 1-817)
# T2 sequence: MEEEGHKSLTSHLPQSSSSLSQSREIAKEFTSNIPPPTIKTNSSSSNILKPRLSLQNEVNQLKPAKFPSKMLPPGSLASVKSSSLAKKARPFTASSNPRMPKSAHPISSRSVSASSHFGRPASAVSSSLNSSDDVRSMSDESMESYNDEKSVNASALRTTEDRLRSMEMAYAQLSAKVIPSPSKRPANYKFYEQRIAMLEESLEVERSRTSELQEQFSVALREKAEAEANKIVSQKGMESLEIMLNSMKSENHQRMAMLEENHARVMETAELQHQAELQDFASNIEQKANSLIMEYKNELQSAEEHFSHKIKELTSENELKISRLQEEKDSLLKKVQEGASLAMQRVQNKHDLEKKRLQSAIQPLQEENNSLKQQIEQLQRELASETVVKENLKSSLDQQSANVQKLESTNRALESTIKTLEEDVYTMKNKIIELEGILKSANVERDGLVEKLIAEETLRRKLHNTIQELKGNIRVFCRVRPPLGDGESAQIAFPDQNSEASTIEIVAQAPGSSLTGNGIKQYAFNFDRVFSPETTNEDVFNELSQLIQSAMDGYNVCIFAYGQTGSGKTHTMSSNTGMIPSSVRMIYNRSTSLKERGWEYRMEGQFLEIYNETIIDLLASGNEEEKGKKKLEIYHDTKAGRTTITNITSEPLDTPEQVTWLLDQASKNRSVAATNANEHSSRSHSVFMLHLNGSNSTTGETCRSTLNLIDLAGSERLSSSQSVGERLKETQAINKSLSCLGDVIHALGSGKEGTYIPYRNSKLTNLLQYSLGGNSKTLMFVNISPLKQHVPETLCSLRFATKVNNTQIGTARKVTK
# Columns and labels:
# His-GFP-Klp2 = target: T1, His-GFP-Klp2; assay: pull-down
# StrepII-GFP-Klp2 = target: T2, StrepII-GFP-Klp2; assay: TIRF microscopy of purified proteins on microtubules
Binder,binding result (His-GFP-Klp2),binding result (StrepII-GFP-Klp2)
GST-Rsp1 (natural protein) MARTAFHDEFVDYYTILGAESTSSYVEIRQQYLKLVLRYHPDRNPGREAEVLPQFQLIQKAHEVLKDPKLRELFDQRRLLEAGRPDGVLRFRPKKSGPKNDISTKVASKVSVTMATKFAEKKKKQDRENVDSKDNNITNFSLHRSFSASGKMEKNNSFKEVSTSKSYISSGYLHPKTSPIFKKNGYATENVVDPISSSPRFKGPNYNKFNAKLYLESLREKRRTYTPLSEISNGLNSNGVENSSITKSSPRSSSSSNNERFKDTSEESIIFTSPNTPEHPSVYQTDITPEIKLEHSDNNSPSKPEIPFRHPTSKPLPPKPLSRSKSSSLSRNQTRSQLNDLSAENDSTSNSTEYDDQLQSILRSLAIEGDDDEVAKVLPKPPSVPTIQAPIPPEAPRNLTNASVDSYLNSFEMYQRRWSSYSIIYTQYAFQWQIFKNKCFQLDLMNTPGQSRLIDNWKEGSQAIQLFYAYEQMHLRALEELQSLKESLFASFGI,binds,
Rsp1-mCherry-StrepII (natural protein) MARTAFHDEFVDYYTILGAESTSSYVEIRQQYLKLVLRYHPDRNPGREAEVLPQFQLIQKAHEVLKDPKLRELFDQRRLLEAGRPDGVLRFRPKKSGPKNDISTKVASKVSVTMATKFAEKKKKQDRENVDSKDNNITNFSLHRSFSASGKMEKNNSFKEVSTSKSYISSGYLHPKTSPIFKKNGYATENVVDPISSSPRFKGPNYNKFNAKLYLESLREKRRTYTPLSEISNGLNSNGVENSSITKSSPRSSSSSNNERFKDTSEESIIFTSPNTPEHPSVYQTDITPEIKLEHSDNNSPSKPEIPFRHPTSKPLPPKPLSRSKSSSLSRNQTRSQLNDLSAENDSTSNSTEYDDQLQSILRSLAIEGDDDEVAKVLPKPPSVPTIQAPIPPEAPRNLTNASVDSYLNSFEMYQRRWSSYSIIYTQYAFQWQIFKNKCFQLDLMNTPGQSRLIDNWKEGSQAIQLFYAYEQMHLRALEELQSLKESLFASFGI,,binds
